Data: patent US20160362487A1 (Regeneron, published 2016)
Numbering of substitutions follows the chain as printed. Names and notes keep the numbering of the source.

B1: H4H9640P (antibody, human IgG4, V domains shown)
VH: QVQLQESGPGLVKPSETLSLTCTVSGGSISSYYWSWIRQPPGKGLELIGYIYYSGSTNYNPSLKSRVTISVDTSKNHFSLKLSSVTAADTAVYYCARSQYTSSWYGSFDIWGQGTMVTVSS
VL: DIQMTQSPSSVSASVGDRVTITCRASQGISTWLAWFQQKPGKAPKLLIYAASTLQGGVPSRFSGSGSGPEFTLTISSLQPEDFATYYCQQANSFPWTFGQGTKVEIK
notes: Human IgG4 Fc (H4H)
B2: H4H9660P (antibody, human IgG4, V domains shown)
VH: EVQLVESGGGLVQPGGSLRLSCAASGITLSSYGMSWVRQAPGKGLEWVASIFGSGGGPYYADSVKGRFTMSRDNSKNTLYLQMNSLRAEDTAVYYCAKDRYSGSYYGGFDYWGRGTLVTVSS
VL: DIQMTQSPSSVSASVGDRVTITCRASQGITSWLAWYQQKPGKAPTLLIYAASSLQTGVPSRFSGSGSGTDFTLTISSLQPEHFATYYCQQANSFPPTFGGGTKVEIK
notes: Human IgG4 Fc (H4H)
B3: H4H9662P (antibody, V domains shown)
VH: EVQLVESGGGLVQPGGSLRLSCAASGFTFSSYALTWVRQAPGKGLEWVSFISGSGGRPFYADSVKGRFTISRDNSKNMLYLQMNSLRAEDTAIYYCAKSLYTTSWYGGFDSWGQGTLVTVSS
VL: B2 VL with I29V, T30V, T45K, T56S, H82D, A91S, P96F, F98L, G100P, E105D
notes: Human IgG4 Fc (H4H)
B4: H4H9663P (antibody, human IgG4, V domains shown)
VH: QVQLVQSGAEVKKPGASVKVSCKASGYTFTGHYMYWMRQAPGQGLEWMGWINPNSGGTNYAQKFQDRVTMTRDTSISTAYMELSRLRSDDTAVYYCARGRYGSSWYGGFEYWGQGTLVTVSS
VL: B2 VL with T45N, S52A, T56S, H82D, A84T, N92Y, F94L, P96L
notes: Human IgG4 Fc (H4H)
B5: H1M9559N (antibody, mouse IgG1, V domains shown)
VH: QVQLVESGGGVVQPGRSLRLSCAASGFTFSSYGMHWVRQAPGKGLEWVAVIWYDGRNKYYTDSVKGRFTISRDNSKNTLYLQMDSLRAEDTAVYYCARERYISSYYGGFDPWGQGALVTVSS
VL: B2 VL with T30S, T45K, L46V, T56S, H82D, P96F, G100P, V104L, E105D
notes: Human variable domains, mouse IgG1 Fc (H1M)
B6: H4H9629P (antibody, human IgG4, V domains shown)
VH: EVQLVESGGGLVQPGGSLRLSCAASGFTFRSFAMSWVRQAPGKGLELVSDLRTSGGSTYYADSVKGRLTISRDNSKNTLYLQMNSLRAEDTAVYYCAKSHYSTSWFGGFDYWGQGTLVTVSS
VL: B2 VL with I29F, T30S, T45K, T56S, S76T, S77N, H82D, P96L
notes: Human IgG4 Fc (H4H)

Biological target: T1, cynomolgus monkey IL-33 expressed with a C-terminal hexahistidine tag (cynomolgus monkey)
T1 construct: also called MfIL-33-6His; Mf-IL-33-6His
T1 chain: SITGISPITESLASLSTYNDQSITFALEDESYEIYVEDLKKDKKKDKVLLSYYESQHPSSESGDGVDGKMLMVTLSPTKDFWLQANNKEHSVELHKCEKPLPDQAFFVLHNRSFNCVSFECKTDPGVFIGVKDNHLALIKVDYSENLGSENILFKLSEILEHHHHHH
Experiment: competition ELISA, 150 pM MfIL-33-6His on coated hST2-hFc
Experimental: The ability of anti-IL-33 antibodies to block either human IL-33 (hIL-33) or cynomologus monkey IL-33 binding to the human ST2 receptor was measured using a competition sandwich ELISA. […] The antibody/IL-33 mixtures were incubated for 1 hour at room temperature before they were transferred to the hST2-hFc-coated microtiter plates. After incubating for 1 hour at room temperature, the wells were then washed, and plate-bound biotin-hIL-33 was detected with streptavidin conjugated with horse-radish peroxidase (HRP) (Thermo Scientific, Cat # N200), and plate-bound MfIL-33-6His was detected with a HRP conjugated anti-His monoclonal antibody (Qiagen, #34460). All samples were developed with a TMB solution (BD biosciences, #51-2607KC) to produce a colorimetric reaction and then quenched by acidification with 1M sulfuric acid before measuring absorbance at 450 nm on a Victor X5 plate reader. Data analysis was performed using a sigmoidal dose-response model within Prism™ software. […] Percent blockade was calculated as the ratio of the reduction in signal observed in the presence of antibody relative to the difference between the signal with IL-33 alone and background (signal from HRP-conjugated secondary antibody or streptavidin alone). The absorbance measured for the constant concentration of biotin-hIL-33 or MfIL-33-6His alone is defined as 0% blocking and the absorbance measured for no added IL-33 is defined as 100% blocking.
In the case of B1, the “% Maximum blocking” value is reported as 73% and the IC50 is reported as 3.5 nM.
With B2 the “% Maximum blocking” value was 68% and the IC50 was 4.2 nM.
B3 was tested, and the “% Maximum blocking” value was 87% and the IC50 was 0.86 nM.
In the case of B4, the “% Maximum blocking” value is reported as 81% and the IC50 is reported as 1.2 nM.
In the case of B5, the “% Maximum blocking” value is reported as 53% and the IC50 is reported as 10 nM.

These binders were tested against T2, human IL-33 (R&D Systems, #3625-IL-010/CF) (human, UniProt O95760 112-270) (assay: SPR 25C, pH6.0 chase, mAb captured).
T2 construct: Commercial recombinant protein; also called hIL-33; interleukin-33
T2 sequence (looked up): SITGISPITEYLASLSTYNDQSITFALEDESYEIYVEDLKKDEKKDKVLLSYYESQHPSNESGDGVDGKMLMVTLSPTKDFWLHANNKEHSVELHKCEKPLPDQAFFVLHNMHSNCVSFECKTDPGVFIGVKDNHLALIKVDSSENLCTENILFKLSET
Experimental: (§1) Equilibrium dissociation constants (KD values) for IL-33 binding to purified anti-IL-33 monoclonal antibodies were determined using a real-time surface plasmon resonance biosensor using a Biacore 4000 instrument. The Biacore sensor surface was first derivatized by amine coupling with either a polyclonal rabbit anti-mouse antibody (GE, # BR-1008-38) or with a monoclonal mouse anti-human Fc antibody (GE, # BR-1008-39) to capture anti-IL-33 monoclonal antibodies expressed with mouse or with human IgG4 constant regions, respectively. All Biacore binding studies were performed in 0.01M ADA pH 7.4, 0.15M NaCl, 3 mM EDTA, and 0.05% v/v Surfactant Tween-20 (ABS-ET running buffer). […] Association of either hIL-33 or MfIL-33-6His to the captured monoclonal antibody was monitored for 4 minutes and their dissociation in ABS-ET running buffer was monitored for 10 minutes. The effect of reduced pH on the binding of each anti-IL-33 antibody to either hIL-33 or MfIL-33-6His was studied using an in-line pH chase assay format in 0.01M ADA pH 6.0, 0.15M NaCl, 3 mM EDTA, and 0.05% v/v Surfactant Tween-20 (ABS-ET pH6 buffer). To achieve this, association of either hIL-33 or MfIL-33-6His to the captured monoclonal antibody was monitored for 4 minutes in ABS-ET running buffer. Following a 30 second dissociation of either hIL-33 or MfIL-33-6His in ABS-ET running buffer, ABS-ET pH6 buffer was injected for 3 minutes, and the analyte dissociation under the low-pH conditions was measured. All the binding kinetic experiments were performed at both 25° C. and 37° C. Kinetic association (kₐ) and dissociation (kd) constants were determined by fitting the real-time sensorgrams to a 1:1 binding model using Scrubber 2.0c curve fitting software. Binding dissociation equilibrium constants (KD) and dissociative half-lives (t½) were calculated from the kinetic rate constants as: […]
B1 was tested, and the koff was 0.000657 s⁻¹, the t½ was 18 min and the “t½ Ratio (pH 7.4/pH 6.0)” value was 2.8.
For B6, the koff was 0.00128 s⁻¹, the t½ was 9 min and the “t½ Ratio (pH 7.4/pH 6.0)” value was 5.7.
For B2, the koff was 0.000708 s⁻¹, the t½ was 16 min and the “t½ Ratio (pH 7.4/pH 6.0)” value was 3.2.
In the case of B3, the koff is reported as 0.000826 s⁻¹, the t½ is reported as 14 min and the “t½ Ratio (pH 7.4/pH 6.0)” value is reported as 3.3.
B4 was tested, and the koff was 0.0011 s⁻¹, the t½ was 11 min and the “t½ Ratio (pH 7.4/pH 6.0)” value was 2.7.
In the case of B5, the koff is reported as 0.000187 s⁻¹, the t½ is reported as 62 min and the “t½ Ratio (pH 7.4/pH 6.0)” value is reported as 0.7.

Biological target: T1, cynomolgus monkey IL-33 expressed with …
Experiment: SPR 25C, pH6.0 chase, mAb captured
Experimental: as §1
With B1 the koff was 0.000501 s⁻¹, the t½ was 23 min and the “t½ Ratio (pH 7.4/pH 6.0)” value was 0.4.
With B6 the koff was 0.0358 s⁻¹, the t½ was 0.3 min and the “t½ Ratio (pH 7.4/pH 6.0)” value was 2.7.
In the case of B2, the koff is reported as 0.00108 s⁻¹, the t½ is reported as 11 min and the “t½ Ratio (pH 7.4/pH 6.0)” value is reported as 0.7.
With B3 the koff was 0.000117 s⁻¹, the t½ was 99 min and the “t½ Ratio (pH 7.4/pH 6.0)” value was 0.3.
For B4, the koff was 0.000683 s⁻¹, the t½ was 17 min and the “t½ Ratio (pH 7.4/pH 6.0)” value was 0.7.
B5 was tested, and the koff was 0.00152 s⁻¹, the t½ was 8 min and the “t½ Ratio (pH 7.4/pH 6.0)” value was 1.2.

Biological target: T1, cynomolgus monkey IL-33 expressed with …
Experiment: BLI; captured MfIL-33-6His, mAb-1 step with Buffer
Experimental: Binding competition between a panel of different anti-IL-33 monoclonal antibodies was determined using a real time, label-free bio-layer interferometry assay on an Octet® HTX biosensor (ForteBio, A Division of Pall Life Sciences). The experiment was performed at 25° C. using a buffer of 0.01M HEPES pH7.4, 0.15M NaCl, 3 mM EDTA, 0.05% v/v Surfactant Tween-20, and 0.1 mg/ml BSA (HBS-ET kinetics buffer) with the plate shaking at a speed of 1000 rpm. […] The antigen-captured biosensors were then saturated with a first anti-IL-33 monoclonal antibody (subsequently referred to as mAb-1) by immersion into wells containing 50 μg/mL solution of mAb-1 for 5 minutes. The biosensors were then dipped into wells containing a 50 μg/mL solution of a second anti-IL-33 monoclonal antibody (subsequently referred to as mAb-2) for 4 minutes. The biosensors were washed in HBS-ET kinetics buffer in between every step of the experiment. The real-time binding response was monitored during the experiment, and the maximum binding response for each binding step was recorded. The response of mAb-2 binding to MfIL-33-6His pre-complexed with mAb-1 was measured, and competitive/non-competitive behavior of different anti-IL-33 monoclonal antibodies with respect to each other was determined.
In the case of B1, the “mAb-2 Binding to the Pre-complex of mAb-1 & MfIL-33-6xHis” value (“mAb-2 Binding to the Pre-complex” below) is reported as 0.33 nm.
With B6 the “mAb-2 Binding to the Pre-complex” value was 0.3 nm.
B2 was tested, and the “mAb-2 Binding to the Pre-complex” value was 0.3 nm.
For B3, the “mAb-2 Binding to the Pre-complex” value was 0.26 nm.
For B4, the “mAb-2 Binding to the Pre-complex” value was 0.31 nm.
B5 was tested, and the “mAb-2 Binding to the Pre-complex” value was 0.25 nm.

What follows are binders tested against T2, human IL-33 (R&D Systems, …) (assay: cell-based or functional assay).
For B1, the “IC50, blocking of IFN-γ release from human PBMC induced by 260 pM hIL-33, donor #603486” value (“IC50, blocking of IFN-γ release … donor #603486” below) was 4.42e-09 M and the “IC50, blocking of IFN-γ release from human PBMC induced by 260 pM hIL-33, donor #603487” value (“IC50, blocking of IFN-γ release … donor #603487” for short) was 1.22e-08 M.
B6 was tested, and the “IC50, blocking of IFN-γ release … donor #603486” value was 8.15e-10 M and the “IC50, blocking of IFN-γ release … donor #603487” value was 5.21e-09 M.
For B2, the “IC50, blocking of IFN-γ release … donor #603486” value was 6.67e-10 M and the “IC50, blocking of IFN-γ release … donor #603487” value was 2.91e-09 M.
For B3, the “IC50, blocking of IFN-γ release … donor #603486” value was 9.64e-10 M and the “IC50, blocking of IFN-γ release … donor #603487” value was 3.02e-09 M.
With B4 the “IC50, blocking of IFN-γ release … donor #603486” value was 1.24e-08 M and the “IC50, blocking of IFN-γ release … donor #603487” value was 2.2e-08 M.
